Holding throughout (test): cell_activity; HEK 293 luciferase
Holding throughout (conditions): tags: HA, NLS

The target in one series is ZFP 33 QSNV2-RSHR-RDER1 (Homo sapiens). Here is the method: (§1) The in vivo activity assay for a particular three-finger protein was carried out as follows. HEK 293 cells were transfected with four plasmids: 14 ng of a plasmid expressing the particular three-finger protein; 14 ng of the reporter plasmid described above; 70 ng of a plasmid that expresses GAL4-VP 16; and 1.4 ng of a plasmid that expresses Renillar luciferase. The GAL4-VP 16 activates transcription of the minimal synthetic promoter in the reporter so that the repression effected by a particular three-finger protein could be clearly detected and compared to other three-finger proteins. The plasmid expressing Renillar luciferase provides a control of transfection efficiency.
Chain of ZFP 33 QSNV2-RSHR-RDER1 (Homo sapiens) (chain, as listed by the source): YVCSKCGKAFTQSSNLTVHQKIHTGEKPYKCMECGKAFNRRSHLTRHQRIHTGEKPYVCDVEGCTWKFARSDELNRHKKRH
(§2) Lipofectamine (Gibco-BRL) was used for the transfection procedures. Cells were transfected at 30-50% confluency in wells of a 96 well plate. The cells were incubated for two days prior to harvesting for the luciferase assay. Then luciferase activities were measured using the Dual-Luciferase™ Reporter Assay System (Promega). The observed firefly luciferase activity was normalized using the observed level of Renilla luciferase. The extent of repression or “fold-repression” was calculated by dividing a value for normalized reporter expression in the absence of a zinc finger protein by a value for normalized reporter expression in the presence of the zinc finger protein.
(§3) A total of 153 three-finger chimeric proteins were constructed from both the “zinc finger protein-first” and the “target site-first” approaches. These proteins were tested using the transient cotransfection assay described in Example 68.

The next series concerns the target ZFP 58 VSNV-QSHR2-VSTR (Homo sapiens). Here is the method: as §1, §2, §3
For the next series, the target named is ZFP 46 HSNK-QSHT-RSNR (Homo sapiens). Here is the method: as §1, §2, §3
Chain of ZFP 46 HSNK-QSHT-RSNR (Homo sapiens) (chain, as listed by the source): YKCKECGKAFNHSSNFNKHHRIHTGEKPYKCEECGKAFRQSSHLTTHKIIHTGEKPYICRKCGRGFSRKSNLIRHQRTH
Another series concerns the target ZFP 65 RSNR-RDER1-RSHR (Homo sapiens). The procedure: as §1, §2, §3
The target in another series is ZFP 43 QSSR1-QSNR3-QSHR2 (Homo sapiens). The procedure: as §1, §2, §3
Chain of ZFP 43 QSSR1-QSNR3-QSHR2 (Homo sapiens) (chain, as listed by the source): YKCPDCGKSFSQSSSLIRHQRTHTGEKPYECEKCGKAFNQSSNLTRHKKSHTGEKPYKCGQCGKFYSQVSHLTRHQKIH
For a further series, the target named is ZFP 57 QSHR2-CSNR1-QSHT (Homo sapiens). The procedure: as §1, §2, §3
Chain of ZFP 57 QSHR2-CSNR1-QSHT (Homo sapiens) (chain, as listed by the source): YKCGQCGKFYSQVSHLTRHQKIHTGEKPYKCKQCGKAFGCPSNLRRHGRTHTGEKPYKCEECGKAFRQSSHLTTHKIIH
A further series has as its target ZFP 48 RDHT-RSHR-RDER1 (Homo sapiens). The procedure: as §1, §2, §3
A further series has as its target ZFP 62 RDER1-QSSR1-VSTR (Homo sapiens). The procedure: as §1, §2, §3
Another series concerns the target ZFP 45 HSNK-QSNV2-VSSR (Homo sapiens). The procedure: as §1, §2, §3
The target in another series is ZFP 52 QSHR2-QSHT-RSNR (Homo sapiens). The procedure:
as §1, §2, §3

In the next series the target is ZFP 36 RSNR-VSSR-RSNR (Homo sapiens). The procedure: as §1, §2, §3
Chain of ZFP 36 RSNR-VSSR-RSNR (Homo sapiens) (chain, as listed by the source): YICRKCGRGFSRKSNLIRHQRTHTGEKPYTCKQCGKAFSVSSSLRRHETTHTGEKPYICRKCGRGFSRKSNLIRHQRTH
For a further series, the target named is ZFP 39 VSTR-RSNR-QSHR2 (Homo sapiens). Here is the method:
as §1, §2, §3

The target of a further series is ZFP 42 RDHT-QSHR2-QSHT (Homo sapiens). Here is the method: as §1, §2, §3
Chain of ZFP 42 RDHT-QSHR2-QSHT (Homo sapiens) (chain, as listed by the source): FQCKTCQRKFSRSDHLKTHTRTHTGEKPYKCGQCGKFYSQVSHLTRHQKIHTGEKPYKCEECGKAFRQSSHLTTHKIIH
The target of the next series is ZFP 64 VSSR-RSHR-ISNR (Homo sapiens). Here is the method: as §1, §2, §3
Chain of ZFP 64 VSSR-RSHR-ISNR (Homo sapiens) (chain, as listed by the source): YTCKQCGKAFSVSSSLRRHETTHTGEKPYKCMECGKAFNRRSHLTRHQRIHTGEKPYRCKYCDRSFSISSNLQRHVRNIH
Another series has as its target ZFP 53 QSHR2-RDHT-CSNR1 (Homo sapiens). Here is the method:
as §1, §2, §3

The next series deals with ZFP 35 VSSR-QSHT-RSHR (Homo sapiens). Here is the method: as §1, §2, §3
Chain of ZFP 35 VSSR-QSHT-RSHR (Homo sapiens) (chain, as listed by the source): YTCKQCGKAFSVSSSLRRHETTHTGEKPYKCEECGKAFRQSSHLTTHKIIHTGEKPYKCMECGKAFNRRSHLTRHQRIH
A further series has as its target ZFP 56 RSNR-VSTR-RSHR (Homo sapiens). The procedure:
as §1, §2, §3

For another series, the target named is ZFP 55 QSNV2-QSHR2-QSNR3 (Homo sapiens). Here is the method: as §1, §2, §3
Chain of ZFP 55 QSNV2-QSHR2-QSNR3 (Homo sapiens) (chain, as listed by the source): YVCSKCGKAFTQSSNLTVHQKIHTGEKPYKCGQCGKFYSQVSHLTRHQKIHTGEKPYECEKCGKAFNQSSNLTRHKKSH
Another series addresses ZFP 47 RSHR-QSHR2-VSTR (Homo sapiens). Here is the method:
as §1, §2, §3

For the next series, the target named is ZFP 34 VSSR-HSNK-RSNR (Homo sapiens). Here is the method: as §1, §2, §3
Chain of ZFP 34 VSSR-HSNK-RSNR (Homo sapiens) (chain, as listed by the source): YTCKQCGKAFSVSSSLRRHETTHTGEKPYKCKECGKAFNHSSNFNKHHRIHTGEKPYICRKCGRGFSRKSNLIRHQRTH
A further series has as its target ZFP 41 QSNR3-RSNR-RSHR (Homo sapiens). Here is the method: as §1, §2, §3
A further series addresses ZFP 51 VSNV-QSNV2-QSHT (Homo sapiens). Here is the method: as §1, §2, §3
In a further series the target is ZFP 49 RSHR-QSNV2-QSHT (Homo sapiens). Here is the method: as §1, §2, §3
Chain of ZFP 49 RSHR-QSNV2-QSHT (Homo sapiens) (chain, as listed by the source): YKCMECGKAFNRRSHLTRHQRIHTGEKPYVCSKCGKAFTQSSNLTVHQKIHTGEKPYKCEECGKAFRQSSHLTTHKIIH
A further series has as its target ZFP 60 QSNR3-QSSR1-QSNV2 (Homo sapiens). Here is the method:
as §1, §2, §3

A further series addresses ZFP 50 RSHR-RDER1-QSNV2 (Homo sapiens). Here is the method:
as §1, §2, §3

Chain of ZFP 52 QSHR2-QSHT-RSNR (Homo sapiens) (chain, as listed by the source): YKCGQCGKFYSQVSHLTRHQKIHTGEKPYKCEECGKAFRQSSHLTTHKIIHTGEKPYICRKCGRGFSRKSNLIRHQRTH
Chain of ZFP 39 VSTR-RSNR-QSHR2 (Homo sapiens) (chain, as listed by the source): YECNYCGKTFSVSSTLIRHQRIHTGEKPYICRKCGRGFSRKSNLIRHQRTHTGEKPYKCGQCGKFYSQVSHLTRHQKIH
Chain of ZFP 45 HSNK-QSNV2-VSSR (Homo sapiens) (chain, as listed by the source): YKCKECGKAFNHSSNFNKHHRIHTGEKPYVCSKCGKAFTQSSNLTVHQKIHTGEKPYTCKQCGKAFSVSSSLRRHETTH
Chain of ZFP 50 RSHR-RDER1-QSNV2 (Homo sapiens) (chain, as listed by the source): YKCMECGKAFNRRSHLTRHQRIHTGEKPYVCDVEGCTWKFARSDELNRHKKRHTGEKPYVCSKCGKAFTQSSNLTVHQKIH
Chain of ZFP 58 VSNV-QSHR2-VSTR (Homo sapiens) (chain, as listed by the source): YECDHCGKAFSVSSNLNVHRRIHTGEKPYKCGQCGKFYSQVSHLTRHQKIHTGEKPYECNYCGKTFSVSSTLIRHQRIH
Chain of ZFP 65 RSNR-RDER1-RSHR (Homo sapiens) (chain, as listed by the source): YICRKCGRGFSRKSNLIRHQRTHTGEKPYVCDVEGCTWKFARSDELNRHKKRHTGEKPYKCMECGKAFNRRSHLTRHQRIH
Chain of ZFP 56 RSNR-VSTR-RSHR (Homo sapiens) (chain, as listed by the source): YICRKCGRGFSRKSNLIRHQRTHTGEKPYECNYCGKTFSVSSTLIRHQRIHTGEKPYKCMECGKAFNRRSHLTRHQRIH
Chain of ZFP 47 RSHR-QSHR2-VSTR (Homo sapiens) (chain, as listed by the source): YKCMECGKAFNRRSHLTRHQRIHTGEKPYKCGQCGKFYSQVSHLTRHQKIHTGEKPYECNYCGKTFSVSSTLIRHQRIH
Chain of ZFP 53 QSHR2-RDHT-CSNR1 (Homo sapiens) (chain, as listed by the source): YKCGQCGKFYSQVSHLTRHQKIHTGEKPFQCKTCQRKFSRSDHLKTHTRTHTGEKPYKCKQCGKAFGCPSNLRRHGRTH
Chain of ZFP 51 VSNV-QSNV2-QSHT (Homo sapiens) (chain, as listed by the source): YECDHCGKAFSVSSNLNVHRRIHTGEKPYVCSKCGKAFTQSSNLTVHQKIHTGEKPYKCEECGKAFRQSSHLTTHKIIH
Chain of ZFP 62 RDER1-QSSR1-VSTR (Homo sapiens) (chain, as listed by the source): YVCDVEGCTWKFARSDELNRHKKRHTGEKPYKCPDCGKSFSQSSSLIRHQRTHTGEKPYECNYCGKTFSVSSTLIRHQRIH
Chain of ZFP 48 RDHT-RSHR-RDER1 (Homo sapiens) (chain, as listed by the source): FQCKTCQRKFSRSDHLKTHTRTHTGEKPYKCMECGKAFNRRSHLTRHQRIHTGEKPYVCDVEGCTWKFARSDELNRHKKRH
Chain of ZFP 60 QSNR3-QSSR1-QSNV2 (Homo sapiens) (chain, as listed by the source): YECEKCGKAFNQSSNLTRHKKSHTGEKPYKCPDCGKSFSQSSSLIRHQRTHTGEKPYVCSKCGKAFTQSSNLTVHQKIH
Chain of ZFP 41 QSNR3-RSNR-RSHR (Homo sapiens) (chain, as listed by the source): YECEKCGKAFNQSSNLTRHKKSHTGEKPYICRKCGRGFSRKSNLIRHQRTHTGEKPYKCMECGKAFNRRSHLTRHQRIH

B1: target 33 (dsDNA)
DNA 1: GTGGGGAAAA
DNA 2: TTTTCCCCAC
As for B1, the activity with ZFP 33 QSNV2-RSHR-RDER1 is 1.9 fold repression.

B2: target 58 (dsDNA)
DNA 1: GCTGGAAATT
DNA 2: AATTTCCAGC
Molecule B2 registered an activity with ZFP 58 VSNV-QSHR2-VSTR of 1.5 fold repression.

B3: target 46 (dsDNA)
DNA 1: GAGAGAGAC
DNA 2: GTCTCTCTC
The molecule B3 yielded an activity with ZFP 46 HSNK-QSHT-RSNR of 1.7 fold repression.

B4: target 65 (dsDNA)
DNA 1: GGGGCGGAG
DNA 2: CTCCGCCCC
B4 yielded an activity in the series with ZFP 65 RSNR-RDER1-RSHR of 1.5 fold repression.

B5: target 43 (dsDNA)
DNA 1: GGAGAAGTAG
DNA 2: CTACTTCTCC
B5 returned an activity with ZFP 43 QSSR1-QSNR3-QSHR2 of 1.7 fold repression.

B6: target 57 (dsDNA)
DNA 1: TGAGACGGAG
DNA 2: CTCCGTCTCA
With B6, the activity with ZFP 57 QSHR2-CSNR1-QSHT was 1.5 fold repression.

B7: target 48 (dsDNA)
DNA 1: GCGGGGAGGG
DNA 2: CCCTCCCCGC
With B7, the activity with ZFP 48 RDHT-RSHR-RDER1 turned out to be 1.6 fold repression.

B8: target 62 (dsDNA)
DNA 1: GCTGCAGCGT
DNA 2: ACGCTGCAGC
As for B8, the activity in the series with ZFP 62 RDER1-QSSR1-VSTR was found to be 1.5 fold repression.

B9: target 45 (dsDNA)
DNA 1: GTTCAAGAC
DNA 2: GTCTTGAAC
As to B9, the activity in the series with ZFP 45 HSNK-QSNV2-VSSR was 1.7 fold repression.

B10: target 52 (dsDNA)
DNA 1: GAGTGAGGA
DNA 2: TCCTCACTC
In the case of B10, in the series with ZFP 52 QSHR2-QSHT-RSNR, the activity came out at 1.6 fold repression.

B11: target 36 (dsDNA)
DNA 1: GAGGTTGAGG
DNA 2: CCTCAACCTC
In the series with ZFP 36 RSNR-VSSR-RSNR, B11 displayed an activity of 1.8 fold repression.

B12: target 39 (dsDNA)
DNA 1: GGAGAGGCTC
DNA 2: GAGCCTCTCC
The molecule B12 gave an activity with ZFP 39 VSTR-RSNR-QSHR2 of 1.8 fold repression.

B13: target 42 (dsDNA)
DNA 1: AGAGGAAGGT
DNA 2: ACCTTCCTCT
For B13, in the series with ZFP 42 RDHT-QSHR2-QSHT, the activity was 1.7 fold repression.

B14: target 64 (dsDNA)
DNA 1: GATGGGGTTT
DNA 2: AAACCCCATC
B14 came in with an activity with ZFP 64 VSSR-RSHR-ISNR of 1.5 fold repression.

B15: target 53 (dsDNA)
DNA 1: GACAGGGGAG
DNA 2: CTCCCCTGTC
Consider B15, for which, in the series with ZFP 53 QSHR2-RDHT-CSNR1, the activity amounted to 1.6 fold repression.

B16: target 35 (dsDNA)
DNA 1: GGGTGAGTG
DNA 2: CACTCACCC
Consider B16, for which the activity in the series with ZFP 35 VSSR-QSHT-RSHR was 1.9 fold repression.

B17: target 56 (dsDNA)
DNA 1: GGGGCTGAGG
DNA 2: CCTCAGCCCC
Molecule B17 returned an activity with ZFP 56 RSNR-VSTR-RSHR of 1.5 fold repression.

B18: target 55 (dsDNA)
DNA 1: GAAGGAAAAT
DNA 2: ATTTTCCTTC
Take B18: the activity with ZFP 55 QSNV2-QSHR2-QSNR3 was 1.6 fold repression.

B19: target 47 (dsDNA)
DNA 1: GCTGGAGGGG
DNA 2: CCCCTCCAGC
Molecule B19 had an activity with ZFP 47 RSHR-QSHR2-VSTR of 1.7 fold repression.

B20: target 34 (dsDNA)
DNA 1: GAGGACGTG
DNA 2: CACGTCCTC
As to B20, in the series with ZFP 34 VSSR-HSNK-RSNR, the activity came to 1.9 fold repression.

B21: target 41 (dsDNA)
DNA 1: GGGGAGGAAA
DNA 2: TTTCCTCCCC
The molecule B21 yielded an activity with ZFP 41 QSNR3-RSNR-RSHR of 1.7 fold repression.

B22: target 51 (dsDNA)
DNA 1: AGAAAAAATA
DNA 2: TATTTTTTCT
Turning to B22, in the series with ZFP 51 VSNV-QSNV2-QSHT, the activity was 1.6 fold repression.

B23: target 49 (dsDNA)
DNA 1: AGAAAAGGG
DNA 2: CCCTTTTCT
For the molecule B23, the activity in the series with ZFP 49 RSHR-QSNV2-QSHT amounted to 1.6 fold repression.

B24: target 60 (dsDNA)
DNA 1: CAAGTAGAAG
DNA 2: CTTCTACTTG
In the series with ZFP 60 QSNR3-QSSR1-QSNV2, B24 registered an activity of 1.5 fold repression.

B25: target 50 (dsDNA)
DNA 1: AAAGTGGGGA
DNA 2: TCCCCACTTT
Take B25: in the series with ZFP 50 RSHR-RDER1-QSNV2, the activity is 1.6 fold repression.

Values taken from patent US20030165997, “Zinc finger domain libraries” (published 2003).
